Experimental data reported in US20160137696A1 (Bristol-Myers Squibb, published 2016).
Starred links: 1 amine or outer side, 2 acyl side, 3 side chain; linkers in the order of their positions; H or OH if unused. Positions of bridges follow the written chain, without caps; N, C: chain ends. Non-standard residues stand in square brackets, D forms with d. Groups on a side chain read outwards from the residue. Primed or numbered codes have the meaning given here. No end group written: not given here. *: point of attachment. PEG8′ = PEG8 unit (23-azido-3,6,9,12,15,18,21-heptaoxatricosyl, i.e. an eight-unit PEG spacer) linking the triazole to vitamin E succinate; Pra′ = propargylglycine (built in as LPH), clicked to a 1-substituted triazol-4-yl-alanine, O=C([C@H](Cc1cn([*:3])nn1)N[*:1])[*:2]; X1 = (S)‑3‑carboxy‑3‑(15-carboxypentadecanoylamino)propyl, O=C(O)CCCCCCCCCCCCCCC(=O)N[C@@H](CC*)C(=O)O; Pra″ = its azide, alkyne or alkene has reacted where a group follows in round brackets; X2 = (S)‑3‑carboxy‑3‑palmitamidopropyl, CCCCCCCCCCCCCCCC(=O)N[C@@H](CC*)C(=O)O; Phe(4-OMe)″ = p-methoxyphenylalanine, COc1ccc(C[C@H](N[*:1])C(=O)[*:2])cc1; Pra(3) = propargylglycine, clicked to an azide to give a triazolyl-alanine; triazole = 1,2,3-triazole formed by click of the Pra alkyne with the azide; Trp(1-CH2CO) = O=C([C@H](Cc1cn(CC(=O)[*:3])c2ccccc12)N[*:1])[*:2]; Tyr(Me) = O-methyl-tyrosine, COc1ccc(C[C@H](N[*:1])C(=O)[*:2])cc1; C18 diacid = O=C(O)CCCCCCCCCCCCCCCCC(=O)*; Phe(4-F) = N[C@@H](Cc1ccc(F)cc1)C(=O)O; γGlu = O=C(O)[C@H](CCC(=O)[*:2])N[*:1]; Hyp = O=C(O)[C@@H]1C[C@@H](O)CN1; NMeF = CN[C@@H](Cc1ccccc1)C(=O)O; F3Phe = trifluoro-phenylalanine; dHyp = O=C(O)[C@H]1C[C@H](O)CN1; NMeNle = CCCC[C@H](NC)C(=O)O; Suc = O=C(CCC(=O)[*:2])[*:1]; triazole″ = not defined here; Pip = O=C(O)[C@@H]1CCCCN1; NMeA = CN[C@@H](C)C(=O)O; Pra = C#CC[C@H](N)C(=O)O; Dab = NCC[C@H](N)C(=O)O; Dap = NC[C@H](N)C(=O)O

B1: INT-130AE (peptide)
peptide: {CH2CO}-Y[NMeA]DP[Dap]L[Hyp]W[Dab][Trp(1-CH2CO)][NMeNle][NMeNle]ECG[Pra]-OH
modifications: thioether N-14
SMILES: C#CC[C@H](NC(=O)CNC(=O)[C@@H]1CSCC(=O)N[C@@H](Cc2ccc(O)cc2)C(=O)N(C)[C@@H](C)C(=O)N[C@@H](CC(=O)O)C(=O)N2CCC[C@H]2C(=O)N[C@@H](CN)C(=O)N[C@@H](CC(C)C)C(=O)N2C[C@H](O)C[C@H]2C(=O)N[C@@H](Cc2c[nH]c3ccccc23)C(=O)N[C@@H](CCN)C(=O)N[C@@H](Cc2cn(CC(=O)O)c3ccccc23)C(=O)N(C)[C@@H](CCCC)C(=O)N(C)[C@@H](CCCC)C(=O)N[C@@H](CCC(=O)O)C(=O)N1)C(=O)O
B2: INT-130AA (peptide)
peptide: {CH2CO}-Y[NMeA]NP[Dap]L[Hyp]W[Dab][Trp(1-CH2CO)][NMeNle][NMeNle]LCGG[Pra]-OH
modifications: thioether N-14
SMILES: C#CC[C@H](NC(=O)CNC(=O)CNC(=O)[C@@H]1CSCC(=O)N[C@@H](Cc2ccc(O)cc2)C(=O)N(C)[C@@H](C)C(=O)N[C@@H](CC(N)=O)C(=O)N2CCC[C@H]2C(=O)N[C@@H](CN)C(=O)N[C@@H](CC(C)C)C(=O)N2C[C@H](O)C[C@H]2C(=O)N[C@@H](Cc2c[nH]c3ccccc23)C(=O)N[C@@H](CCN)C(=O)N[C@@H](Cc2cn(CC(=O)O)c3ccccc23)C(=O)N(C)[C@@H](CCCC)C(=O)N(C)[C@@H](CCCC)C(=O)N[C@@H](CC(C)C)C(=O)N1)C(=O)O
notes: also called Intermediate 130AA
B3: INT-1300V (peptide)
peptide: {CH2CO}-Y[NMeA]NP[Dap]L[Hyp]W[Dab][Trp(1-CH2CO)][NMeNle][NMeNle]LCG[Pra]-OH
modifications: thioether N-14
SMILES: C#CC[C@H](NC(=O)CNC(=O)[C@@H]1CSCC(=O)N[C@@H](Cc2ccc(O)cc2)C(=O)N(C)[C@@H](C)C(=O)N[C@@H](CC(N)=O)C(=O)N2CCC[C@H]2C(=O)N[C@@H](CN)C(=O)N[C@@H](CC(C)C)C(=O)N2C[C@H](O)C[C@H]2C(=O)N[C@@H](Cc2c[nH]c3ccccc23)C(=O)N[C@@H](CCN)C(=O)N[C@@H](Cc2cn(CC(=O)O)c3ccccc23)C(=O)N(C)[C@@H](CCCC)C(=O)N(C)[C@@H](CCCC)C(=O)N[C@@H](CC(C)C)C(=O)N1)C(=O)O
B4: INT-1400I (peptide)
peptide: {CH2CO}-Y[NMeA]NP[Dap]L[Hyp]WS[Trp(1-CH2CO)][NMeNle][NMeNle]ECG[Pra]
modifications: thioether N-14; not fully specified (C-terminus); printed as ClAc-Tyr-mAla-Asn-Pro-Dap-Leu-Hyp-Trp-Ser-Trp(1-carboxymethyl)-mNle-mNle-E-Cys-Gly-[(S)-propargylglycine], cyclised ClAc-Cys
notes: also called Intermediate 1400I
B5: Example 14124 (peptide)
peptide: {CH2CO}-F[Pip]DP[Dap]L[Hyp]W[Dab]W[NMeNle][NMeNle]LCGD
modifications: thioether N-14; not fully specified (residues 1, 10, 16, C-terminus); also: residue 1 written Tyr(4-F)
B6: Example 14086 (peptide)
peptide: YADPHKPWKWXXECGXD
modifications: as m110 (INT 1400E); Pra triazole-linked to vitamin E succinate 5-azidopentylamide
B7: Example 14082 (peptide)
peptide: YADPHKPWKWXXECGX
modifications: as m115 (INT 1400J); Pra triazole-linked to vitamin E succinate 5-azidopentylamide
B8: Example 14085 (peptide)
peptide: YADPHKPWKWXXECGX
modifications: as m102 (INT 1300Y); Pra triazole-linked to vitamin E succinate 5-azidopentylamide
B9: INT-130AD (peptide)
peptide: {CH2CO}-Y[NMeA]NP[Dap]L[Hyp]W[Dab][Trp(1-CH2CO)][NMeNle][NMeNle]ECG[Pra]-OH
modifications: thioether N-14
SMILES: C#CC[C@H](NC(=O)CNC(=O)[C@@H]1CSCC(=O)N[C@@H](Cc2ccc(O)cc2)C(=O)N(C)[C@@H](C)C(=O)N[C@@H](CC(N)=O)C(=O)N2CCC[C@H]2C(=O)N[C@@H](CN)C(=O)N[C@@H](CC(C)C)C(=O)N2C[C@H](O)C[C@H]2C(=O)N[C@@H](Cc2c[nH]c3ccccc23)C(=O)N[C@@H](CCN)C(=O)N[C@@H](Cc2cn(CC(=O)O)c3ccccc23)C(=O)N(C)[C@@H](CCCC)C(=O)N(C)[C@@H](CCCC)C(=O)N[C@@H](CCC(=O)O)C(=O)N1)C(=O)O
B10: INT-1300W (peptide)
peptide: {CH2CO}-Y[NMeA]NP[Dap]L[Hyp]W[Dab][Trp(1-CH2CO)][NMeNle][NMeNle]LCG[Pra]
modifications: thioether N-14; not fully specified; printed as ClAc-Tyr-[N-Me]Ala-Asn-Pro-Dap-Leu-Hyp-Trp-Dab-Trp(1-carboxymethyl)-[N-Me]Nle-[N-Me]Nle-Leu-Cys-Gly-[(S)-propargylglycine]
B11: INT-1400L (peptide)
peptide: {CH2CO}-[F3Phe][NMeF][NMeNle][dHyp]DV[NMeF]D[dP]WYLCG[Pra]
modifications: thioether N-13; not fully specified (C-terminus); printed as ClAc-F3Phe-mPhe-mNle-dHyp-Asp-Val-mPhe-Asp-dPro-Trp-Tyr-Leu-Cys-Gly-[(S)-propargylglycine]
notes: also called Intermediate 1400L

Each binder was assayed against T1, Recombinant Human PD-L1-TVMV-His (human, UniProt Q9NZQ7 19-239) (assay: HTRF vs PD-1-Ig; B = IC50 0.01-0.099 µM).
T1 construct: expressed in HEK293T cells; also called PD-L1-His; hPD-L1(19-239)-TVMV-His
Method: Homogenous Time-Resolved Fluorescence (HTRF) Assays of Binding of Soluble PD-1 to Soluble PD-L1. Soluble PD-1 and soluble PD-L1 refers to proteins with carboxyl-end truncations that remove the transmembrane-spanning regions and are fused to heterologous sequences, specifically the Fc portion of the human immunoglobuling G sequence (Ig) or the hexahistidine epitope tag (His). All binding studies were performed in an HTRF assay buffer consisting of dPBS supplemented with 0.1% (w/v) bovine serum albumin and 0.05% (v/v) Tween-20. For the PD-1-Ig/PD-L1-His binding assay, inhibitors were pre-incubated with PD-L1-His (10 nM final) for 15 m in 4 μl of assay buffer, followed by addition of PD-1-Ig (20 nM final) in 1 μl of assay buffer and further incubation for 15 m. PD-L1 fusion proteins from either human, cynomologous macaques, mouse, or other species were used. HTRF detection was achieved using europium crypate-labeled anti-Ig monoclonal antibody (1 nM final) and allophycocyanin (APC) labeled anti-His monoclonal antibody (20 nM final). Antibodies were diluted in HTRF detection buffer and 5 μl was dispensed on top of binding reaction. The reaction was allowed to equilibrate for 30 minutes and signal (665 nm/620 nm ratio) was obtained using an EnVision fluorometer. Additional binding assays were established between PD-I-Ig/PD-L2-His (20 and 5 nM, respectively), CD80-His/PD-L1-Ig (100 and 10 nM, respectively) and CD80-His/CTLA4-Ig (10 and 5 nM, respectively). Binding/competition studies between biotinylated Compound No. 71 and human PD-L1-His were performed as follows. Macrocyclic peptide inhibitors were pre-incubated with PD-L1-His (10 nM final) for 60 minutes in 4 μl of assay buffer followed by addition of biotinylated Compound No. 71 (0.5 nM final) in 1 μl of assay buffer. Binding was allowed to equilibrate for 30 minutes followed by addition of europium crypated labeled Streptavidin (2.5 pM final) and APC-labeled anti-His (20 nM final) in 5 μl of HTRF buffer. The reaction was allowed to equilibrate for 30 m and signal (665 nm/620 nm ratio) was obtained using an EnVision fluorometer.

T1 sequence (Q9NZQ7 other isoform, or with tags, fused parts or gaps limits assumed): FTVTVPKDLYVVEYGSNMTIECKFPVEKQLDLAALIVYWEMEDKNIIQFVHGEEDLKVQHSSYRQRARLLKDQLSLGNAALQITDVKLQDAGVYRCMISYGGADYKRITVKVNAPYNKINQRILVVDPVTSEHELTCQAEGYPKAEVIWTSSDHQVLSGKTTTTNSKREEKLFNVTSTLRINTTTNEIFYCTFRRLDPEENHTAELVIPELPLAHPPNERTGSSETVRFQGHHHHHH

IC50, 10 to 99 nM:
B1
B2
{CH2CO}-[Tyr(Me)][Pip]DP[Dap]Q[Hyp]W[Dab][Trp(1-CH2CO)][NMeNle][NMeNle]ECG[Pra″]([triazole-(S)‑18‑((3-azido-1-carboxypropyl)amino)‑18‑oxooctadecanoic acid]) (thioether N-14) [Example 14121]
B3
{CH2CO}-Y[NMeA]NP[Dap]L[Hyp]WS[Trp(1-CH2CO)][NMeNle][NMeNle]LCG[Pra] (thioether N-14, also called Intermediate 1300X) [INT-1300X]
{CH2CO}-Y[NMeA]NP[Dap]L[Hyp]WS[Trp(1-CH2CO)][NMeNle][NMeNle]ECG[Pra′]([triazole-X1]) (thioether N-14) [Example 14070]
B4
{CH2CO}-Y[Pip]NP[Dap]L[Hyp]W[Dab][Trp(1-CH2CO)][NMeNle][NMeNle]LCG[Dab]([γGlu-C18 diacid]) (thioether N-14 (inferred)) [Example 13149]
B5
{CH2CO}-Y[NMeA]DPHK[Hyp]WKW[NMeNle][NMeNle]ECG[Pra(3)]([triazole″-X2])D (thioether N-14; reading uncertain) [Example 14061]
B6
{CH2CO}-Y[NMeA]DPHK[Hyp]WK[Trp(1-CH2CO)][NMeNle][NMeNle]ECG[Pra′]([triazole-X1])D (thioether N-14) [Example 14071]
{CH2CO}-Y[NMeA]DPHK[Hyp]WKW[NMeNle][NMeNle]ECG[Pra′]([triazole-X1])D (thioether N-14) [Example 14065]
B7
B8
{CH2CO}-Y[NMeA]DPHK[Hyp]WKW[NMeNle][NMeNle]ECG[Pra″]([triazole″-PEG8′-Suc-vitamin E])G (thioether N-14; reading uncertain) [Example 14052]
{CH2CO}-[Phe(4-F)][Pip]DP[Dap]L[Hyp]W[Dab][Trp(1-CH2CO)][NMeNle][NMeNle]LCG[Pra″]([triazole-(S)‑18‑((3-azido-1-carboxypropyl)amino)‑18‑oxooctadecanoic acid]) (thioether N-14; also: residue 1 written Tyr(4-F)) [Example 14122]
{CH2CO}-[Phe(4-OMe)″][Pip]NPHL[Hyp]W[Dab][Trp(1-CH2CO)][NMeNle][NMeNle]LCG[Dab]([γGlu-C18 diacid]) (thioether N-14 (inferred)) [Example 13151]
B9
B10
B11
